According to IntAct's records for PubMed 12612073:

B1: Progesterone receptor (Homo sapiens), P06401-1 (parent)
chain: MTELKAKGPRAPHVAGGPPSPEVGSPLLCRPAAGPFPGSQTSDTLPEVSAIPISLDGLLFPRPCQGQDPSDEKTQDQQSLSDVEGAYSRAEATRGAGGSSSSPPEKDSGLLDSVLDTLLAPSGPGQSQPSPPACEVTSSWCLFGPELPEDPPAAPATQRVLSPLMSRSGCKVGDSSGTAAAHKVLPRGLSPARQLLLPASESPHWSGAPVKPSPQAAAVEVEEEDGSESEESAGPLLKGKPRALGGAAAGGGAAAVPPGAAAGGVALVPKEDSRFSAPRVALVEQDAPMAPGRSPLATTVMDFIHVPILPLNHALLAARTRQLLEDESYDGGAGAASAFAPPRSSPCASSTPVAVGDFPDCAYPPDAEPKDDAYPLYSDFQPPALKIKEEEEGAEASARSPRSYLVAGANPAAFPDFPLGPPPPLPPRATPSRPGEAAVTAAPASASVSSASSSGSTLECILYKAEGAPPQQGPFAPPPCKAPGASGCLLPRDGLPSTSASAAAAGAAPALYPALGLNGLPQLGYQAAVLKEGLPQVYPPYLNYLRPDSEASQSPQYSFESLPQKICLICGDEASGCHYGVLTCGSCKVFFKRAMEGQHNYLCAGRNDCIVDKIRRKNCPACRLRKCCQAGMVLGGRKFKKFNKVRVVRALDAVALPQPVGVPNESQALSQRFTFSPGQDIQLIPPLINLLMSIEPDVIYAGHDNTKPDTSSSLLTSLNQLGERQLLSVVKWSKSLPGFRNLHIDDQITLIQYSWMSLMVFGLGWRSYKHVSGQMLYFAPDLILNEQRMKESSFYSLCLTMWQIPQEFVKLQVSQEEFLCMKVLLLLNTIPLEGLRSQTQFEEMRSSYIRELIKAIGLRQKGVVSSSQRFYQLTKLLDNLHDLVKQLHLYCLNTFIQSRALSVEFPEMMSEVIAAQLPKILAGMVKPLLFHKK
B2: Estrogen receptor (Homo sapiens), P03372 (parent)
chain: MTMTLHTKASGMALLHQIQGNELEPLNRPQLKIPLERPLGEVYLDSSKPAVYNYPEGAAYEFNAAAAANAQVYGQTGLPYGPGSEAAAFGSNGLGGFPPLNSVSPSPLMLLHPPPQLSPFLQPHGQQVPYYLENEPSGYTVREAGPPAFYRPNSDNRRQGGRERLASTNDKGSMAMESAKETRYCAVCNDYASGYHYGVWSCEGCKAFFKRSIQGHNDYMCPATNQCTIDKNRRKSCQACRLRKCYEVGMMKGGIRKDRRGGRMLKHKRQRDDGEGRGEVGSAGDMRAANLWPSPLMIKRSKKNSLALSLTADQMVSALLDAEPPILYSEYDPTRPFSEASMMGLLTNLADRELVHMINWAKRVPGFVDLTLHDQVHLLECAWLEILMIGLVWRSMEHPGKLLFAPNLLLDRNQGKCVEGMVEIFDMLLATSSRFRMMNLQGEEFVCLKSIILLNSGVYTFLSSTLKSLEEKDHIHRVLDKITDTLIHLMAKAGLTLQQQHQRLAQLLLILSHIRHMSNKGMEHLYSMKCKNVVPLYDLLLEMLDAHRLHAPTSRGGASVEETDQSHLATAGSTSSHSLQKYYITGEAEGFPATV

Variants of: B1
Settings: with esr1_human ESR1, P03372

| effect of a mutation on the interaction | Variant |
| --- | --- |
| with no effect | P422A;P423A;P426A |

Variants of: B1
Settings: with src_human SRC

| effect of a mutation on the interaction | Variant |
| --- | --- |
| disrupting interaction strength | P422A;P423A;P426A |

Variants of: B2
Settings: with PGR

| effect of a mutation on the interaction | Variant |
| --- | --- |
| with no effect | Y537F |
